B1: PrimPol CTD (PrimPol 480-560) (domain or fragment, human, UniProt Q96LW4 480-560, looked up)
chain: TTDEADETRSNETQNPHKPSPSRLSTGASADAVWDNGIDDAYFLEATEDAELAEAAENSLLSYNSEVDEIPDELIIEVLQE
notes: also called C-terminal region of WT PrimPol; PrimPol C-terminal domain; source: E. coli BL21, purified (Ni-NTA, Q-Sepharose, Superdex 75 SEC)
B2: PrimPol CTD (PrimPol 480-560) S538A (domain or fragment, human, UniProt Q96LW4 480-560, looked up)
chain: B1 chain with S59A
notes: Primase-Polymerase (PrimPol), human, C-terminal domain, residues 480-560, phospho-null mutant S538A; also called C-terminal region of mutant PrimPol; CTD S538A; source: E. coli BL21, purified (Ni-NTA, Q-Sepharose, Superdex 75 SEC)
B3: PrimPol CTD (PrimPol 480-560) S538E (domain or fragment, human, UniProt Q96LW4 480-560, looked up)
chain: B1 chain with S59E
notes: Primase-Polymerase (PrimPol), human, C-terminal domain, residues 480-560, phosphomimetic mutant S538E; also called C-terminal region of mutant PrimPol; CTD S538E; source: E. coli BL21, purified (Ni-NTA, Q-Sepharose, Superdex 75 SEC)

Changes are numbered by the printed parent chain. In names and notes the source's numbering stands.

This note sets out measurements from article PMC8641930, “PLK1 regulates the PrimPol damage tolerance pathway during the cell cycle” (Science Advances, 2021).

T1 sequence (P27694 1-120): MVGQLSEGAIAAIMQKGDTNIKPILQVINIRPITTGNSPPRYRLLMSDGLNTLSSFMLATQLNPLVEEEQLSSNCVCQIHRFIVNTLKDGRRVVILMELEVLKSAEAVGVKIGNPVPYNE

The assay addresses T1, RPA70N (RPA70 1-120) (UniProt P27694 1-120).
T1 construct: Replication Protein A 70 kDa subunit (RPA70), N-terminal domain, residues 1-120; source: E. coli BL21, purified (Ni-NTA, thrombin cleavage of the tag, Superdex 75 SEC)
The experiment in a line: SEC; analytical size exclusion chromatography, Superdex 75 10/300 GL; 50 mM tris-HCl, 100 mM NaCl, 2 mM TCEP; CTD variants mixed with RPA70N at 35 uM; interaction read as a shift of the peaks relative to the single proteins. The conditions noted are these: both partners purified. In general terms: Size exclusion chromatography separates by hydrodynamic size, large species first.
As for B1, the binding result is recorded as “binds”. For B2 the value was “binds”.

As for B3, the binding result is given as “binds”.
